B1: AP2A1 (protein, UniProt O95782 1-977, looked up)
AP-2 complex subunit alpha-1: MPAVSKGDGMRGLAVFISDIRNCKSKEAEIKRINKELANIRSKFKGDKALDGYSKKKYVCKLLFIFLLGHDIDFGHMEAVNLLSSNKYTEKQIGYLFISVLVNSNSELIRLINNAIKNDLASRNPTFMCLALHCIANVGSREMGEAFAADIPRILVAGDSMDSVKQSAALCLLRLYKASPDLVPMGEWTARVVHLLNDQHMGVVTAAVSLITCLCKKNPDDFKTCVSLAVSRLSRIVSSASTDLQDYTYYFVPAPWLSVKLLRLLQCYPPPEDAAVKGRLVECLETVLNKAQEPPKSKKVQHSNAKNAILFETISLIIHYDSEPNLLVRACNQLGQFLQHRETNLRYLALESMCTLASSEFSHEAVKTHIDTVINALKTERDVSVRQRAADLLYAMCDRSNAKQIVSEMLRYLETADYAIREEIVLKVAILAEKYAVDYSWYVDTILNLIRIAGDYVSEEVWYRVLQIVTNRDDVQGYAAKTVFEALQAPACHENMVKVGGYILGEFGNLIAGDPRSSPPVQFSLLHSKFHLCSVATRALLLSTYIKFINLFPETKATIQGVLRAGSQLRNADVELQQRAVEYLTLSSVASTDVLATVLEEMPPFPERESSILAKLKRKKGPGAGSALDDGRRDPSSNDINGGMEPTPSTVSTPSPSADLLGLRAAPPPAAPPASAGAGNLLVDVFDGPAAQPSLGPTPEEAFLSELEPPAPESPMALLADPAPAADPGPEDIGPPIPEADELLNKFVCKNNGVLFENQLLQIGVKSEFRQNLGRMYLFYGNKTSVQFQNFSPTVVHPGDLQTQLAVQTKRVAAQVDGGAQVQQVLNIECLRDFLTPPLLSVRFRYGGAPQALTLKLPVTINKFFQPTEMAAQDFFQRWKQLSLPQQEAQKIFKANHPMDAEVTKAKLLGFGSALLDNVDPNPENFVGAGIIQTKALQVGCLLRLEPNAQAQMYRLTLRTSKEPVSRHLCELLAQQF
B2: GEMIN4 (protein, UniProt P57678 1-1058, looked up)
Gem-associated protein 4: MDLGPLNICEEMTILHGGFLLAEQLFHPKALAELTKSDWERVGRPIVEALREISSAAAHSQPFAWKKKALIIIWAKVLQPHPVTPSDTETRWQEDLFFSVGNMIPTINHTILFELLKSLEASGLFIQLLMALPTTICHAELERFLEHVTVDTSAEDVAFFLDVWWEVMKHKGHPQDPLLSQFSAMAHKYLPALDEFPHPPKRLRSDPDACPTMPLLAMLLRGLTQIQSRILGPGRKCCALANLADMLTVFALTEDDPQEVSATVYLDKLATVISVWNSDTQNPYHQQALAEKVKEAERDVSLTSLAKLPSETIFVGCEFLHHLLREWGEELQAVLRSSQGTSYDSYRLCDSLTSFSQNATLYLNRTSLSKEDRQVVSELAECVRDFLRKTSTVLKNRALEDITASIAMAVIQQKMDRHMEVCYIFASEKKWAFSDEWVACLGSNRALFRQPDLVLRLLETVIDVSTADRAIPESQIRQVIHLILECYADLSLPGKNKVLAGILRSWGRKGLSEKLLAYVEGFQEDLNTTFNQLTQSASEQGLAKAVASVARLVIVHPEVTVKKMCSLAVVNLGTHKFLAQILTAFPALRFVEEQGPNSSATFMVSCLKETVWMKFSTPKEEKQFLELLNCLMSPVKPQGIPVAALLEPDEVLKEFVLPFLRLDVEEVDLSLRIFIQTLEANACREEYWLQTCSPFPLLFSLCQLLDRFSKYWQLPKEKRCLSLDRKDLAIHILELLCEIVSANAETFSPDVWIKSLSWLHRKLEQLDWTVGLRLKSFFEGHFKCEVPATLFEICKLSEDEWTSQAHPGYGAGTGLLAWMECCCVSSGISERMLSLLVVDVGNPEEVRLFSKGFLVALVQVMPWCSPQEWQRLHQLTRRLLEKQLLHVPYSLEYIQFVPLLNLKPFAQELQLSVLFLRTFQFLCSHSCRDWLPLEGWNHVVKLLCGSLTRLLDSVRAIQAAGPWVQGPEQDLTQEALFVYTQVFCHALHIMAMLHPEVCEPLYVLALETLTCYETLSKTNPSVSSLLQRAHEQRFLKSIAEGIGPEERRQTLLQKMSSF
B3: RBM14 (protein, UniProt Q96PK6 1-669, looked up)
RNA-binding protein 14: MKIFVGNVDGADTTPEELAALFAPYGTVMSCAVMKQFAFVHMRENAGALRAIEALHGHELRPGRALVVEMSRPRPLNTWKIFVGNVSAACTSQELRSLFERRGRVIECDVVKDYAFVHMEKEADAKAAIAQLNGKEVKGKRINVELSTKGQKKGPGLAVQSGDKTKKPGAGDTAFPGTGGFSATFDYQQAFGNSTGGFDGQARQPTPPFFGRDRSPLRRSPPRASYVAPLTAQPATYRAQPSVSLGAAYRAQPSASLGVGYRTQPMTAQAASYRAQPSVSLGAPYRGQLASPSSQSAAASSLGPYGGAQPSASALSSYGGQAAAASSLNSYGAQGSSLASYGNQPSSYGAQAASSYGVRAAASSYNTQGAASSLGSYGAQAASYGAQSAASSLAYGAQAASYNAQPSASYNAQSAPYAAQQAASYSSQPAAYVAQPATAAAYASQPAAYAAQATTPMAGSYGAQPVVQTQLNSYGAQASMGLSGSYGAQSAAAATGSYGAAAAYGAQPSATLAAPYRTQSSASLAASYAAQQHPQAAASYRGQPGNAYDGAGQPSAAYLSMSQGAVANANSTPPPYERTRLSPPRASYDDPYKKAVAMSKRYGSDRRLAELSDYRRLSESQLSFRRSPTKSSLDYRRLPDAHSDYARYSGSYNDYLRAAQMHSGYQRRM
B4: SF3B2 (protein, UniProt Q13435 1-895, looked up)
Splicing factor 3B subunit 2: MATEHPEPPKAELQLPPPPPPGHYGAWAAQELQAKLAEIGAPIQGNREELVERLQSYTRQTGIVLNRPVLRGEDGDKAAPPPMSAQLPGIPMPPPPLGLPPLQPPPPPPPPPPGLGLGFPMAHPPNLGPPPPLRVGEPVALSEEERLKLAQQQAALLMQQEERAKQQGDHSLKEHELLEQQKRAAVLLEQERQQEIAKMGTPVPRPPQDMGQIGVRTPLGPRVAAPVGPVGPTPTVLPMGAPVPRPRGPPPPPGDENREMDDPSVGPKIPQALEKILQLKESRQEEMNSQQEEEEMETDARSSLGQSASETEEDTVSVSKKEKNRKRRNRKKKKKPQRVRGVSSESSGDREKDSTRSRGSDSPAADVEIEYVTEEPEIYEPNFIFFKRIFEAFKLTDDVKKEKEKEPEKLDKLENSAAPKKKGFEEEHKDSDDDSSDDEQEKKPEAPKLSKKKLRRMNRFTVAELKQLVARPDVVEMHDVTAQDPKLLVHLKATRNSVPVPRHWCFKRKYLQGKRGIEKPPFELPDFIKRTGIQEMREALQEKEEQKTMKSKMREKVRPKMGKIDIDYQKLHDAFFKWQTKPKLTIHGDLYYEGKEFETRLKEKKPGDLSDELRISLGMPVGPNAHKVPPPWLIAMQRYGPPPSYPNLKIPGLNSPIPESCSFGYHAGGWGKPPVDETGKPLYGDVFGTNAAEFQTKTEEEEIDRTPWGELEPSDEESSEEEEEEESDEDKPDETGFITPADSGLITPGGFSSVPAGMETPELIELRKKKIEEAMDGSETPQLFTVLPEKRTATVGGAMMGSTHIYDMSTVMSRKGPAPELQGVEVALAPEELELDPMAMTQKYEEHVREQQAQVEKEDFSDMVAEHAAKQKQKKRKAQPQDSRGGSKKYKEFKF
B5: MARS (protein, UniProt P56192 1-900, looked up)
Methionine--tRNA ligase, …: MRLFVSDGVPGCLPVLAAAGRARGRAEVLISTVGPEDCVVPFLTRPKVPVLQLDSGNYLFSTSAICRYFFLLSGWEQDDLTNQWLEWEATELQPALSAALYYLVVQGKKGEDVLGSVRRALTHIDHSLSRQNCPFLAGETESLADIVLWGALYPLLQDPAYLPEELSALHSWFQTLSTQEPCQRAAETVLKQQGVLALRPYLQKQPQPSPAEGRAVTNEPEEEELATLSEEEIAMAVTAWEKGLESLPPLRPQQNPVLPVAGERNVLITSALPYVNNVPHLGNIIGCVLSADVFARYSRLRQWNTLYLCGTDEYGTATETKALEEGLTPQEICDKYHIIHADIYRWFNISFDIFGRTTTPQQTKITQDIFQQLLKRGFVLQDTVEQLRCEHCARFLADRFVEGVCPFCGYEEARGDQCDKCGKLINAVELKKPQCKVCRSCPVVQSSQHLFLDLPKLEKRLEEWLGRTLPGSDWTPNAQFITRSWLRDGLKPRCITRDLKWGTPVPLEGFEDKVFYVWFDATIGYLSITANYTDQWERWWKNPEQVDLYQFMAKDNVPFHSLVFPCSALGAEDNYTLVSHLIATEYLNYEDGKFSKSRGVGVFGDMAQDTGIPADIWRFYLLYIRPEGQDSAFSWTDLLLKNNSELLNNLGNFINRAGMFVSKFFGGYVPEMVLTPDDQRLLAHVTLELQHYHQLLEKVRIRDALRSILTISRHGNQYIQVNEPWKRIKGSEADRQRAGTVTGLAVNIAALLSVMLQPYMPTVSATIQAQLQLPPPACSILLTNFLCTLPAGHQIGTVSPLFQKLENDQIESLRQRFGGGQAKTSPKPAVVETVTTAKPQQIQALMDEVTKQGNIVRELKAQKADKNEVAAEVAKLLDLKKQLAVAEGKPPEAPKGKKKK
B6: LIMA1 (protein, UniProt Q9UHB6 1-759, looked up)
LIM domain and actin-binding …: MESSPFNRRQWTSLSLRVTAKELSLVNKNKSSAIVEIFSKYQKAAEETNMEKKRSNTENLSQHFRKGTLTVLKKKWENPGLGAESHTDSLRNSSTEIRHRADHPPAEVTSHAASGAKADQEEQIHPRSRLRSPPEALVQGRYPHIKDGEDLKDHSTESKKMENCLGESRHEVEKSEISENTDASGKIEKYNVPLNRLKMMFEKGEPTQTKILRAQSRSASGRKISENSYSLDDLEIGPGQLSSSTFDSEKNESRRNLELPRLSETSIKDRMAKYQAAVSKQSSSTNYTNELKASGGEIKIHKMEQKENVPPGPEVCITHQEGEKISANENSLAVRSTPAEDDSRDSQVKSEVQQPVHPKPLSPDSRASSLSESSPPKAMKKFQAPARETCVECQKTVYPMERLLANQQVFHISCFRCSYCNNKLSLGTYASLHGRIYCKPHFNQLFKSKGNYDEGFGHRPHKDLWASKNENEEILERPAQLANARETPHSPGVEDAPIAKVGVLAASMEAKASSQQEKEDKPAETKKLRIAWPPPTELGSSGSALEEGIKMSKPKWPPEDEISKPEVPEDVDLDLKKLRRSSSLKERSRPFTVAASFQSTSVKSPKTVSPPIRKGWSMSEQSEESVGGRVAERKQVENAKASKKNGNVGKTTWQNKESKGETGKRSKEGHSLEMENENLVENGADSDEDDNSFLKQQSPQEPKSLNWSSFVDNTFAEEFTTQNQKSQDVELWEGEVVKELSVEEQIKRNRYYDEDEDEE

Legend:
[1] = test system: GFP-14-3-3β and its binding proteins; experiment: GFP-14-3-3β co-IP with LC-MS/MS label-free quantification, untreated versus PP1c-treated; design: species or system human
[2] = test system: GFP-14-3-3β; experiment: GFP-14-3-3β co-IP with LC-MS/MS, untreated GFP-14-3-3β versus GFP control (14-3-3 interactome); type: binding, human
[3] = pairwise comparison PP1 vs untreated
[4] = pairwise comparison untreated vs GFP
[5] = GFP-14-3-3β co-IP LC-MS/MS, PP1 vs untreated, student's t-test, label-free quantification, 3 replicates each
[6] = GFP-14-3-3β co-IP LC-MS/MS, untreated vs GFP, student's t-test, label-free quantification, 3 replicates each

Molecule	Difference (log2), PP1 vs untreated [1, 3]	Difference (log2), untreated vs GFP [2, 4]	Difference (log2), PP1 vs untreated [1, 5]	Difference (log2), untreated vs GFP [2, 6]	also measured
B1	-0.1358 log2	1.114 log2	–	–	–
B2	–	–	–	–	Difference (log2), PP1 vs untreated ([1]; log2 difference, pairwise comparison PP1 vs untreated, label-free quantification, 3 replicates each): 1.751; Difference (log2), untreated vs GFP ([2]; log2 difference, pairwise comparison untreated vs GFP, label-free quantification, 3 replicates each): 0.9703
B3	-0.1292 log2	0.5797 log2	–	–	–
B4	–	–	-0.1579 log2	2.239 log2	–
B5	-0.131 log2	0.1917 log2	–	–	–
B6	–	–	-0.1559 log2	-0.3717 log2	–
